Assay [1] addresses human full length BAFF (construct PS544), found cleaved in the conditioned media (human, UniProt Q9Y275 134-285). As to the kind of experiment: co-transfection in 293T, anti-FLAG (M2) immunoprecipitation of conditioned media, western blot with anti-BAFF 53.14. The method, then:
At 48 hrs. post-transfection, conditioned media was collected and used for immunoprecipitation experiments. The immunoprecipitation samples contained 200 μl of conditioned media, 5 μg/ml of the anti-FLAG antibody M2 (Sigma) and 800 μl of DMEM containing 10% FCS, glutamine, Pen-Strep, G418 and sodium azide and were incubated at 4° C. for 1 hour, with agitation. Then, 30 μl of ProteinA-Sepharose beads (Pharmacia) was added to the samples and the mixture was incubated overnight at 4° C. with agitation. The beads were collected by centrifugation and then washed one time with the DMEM media described above and then 3 times with PBS. The final pellet containing the beads was then suspended in 2× SDS non-reducing sample buffer and boiled for 5 minutes. The beads were spun out and 25 μl of the supernatant was loaded onto 2 separate 4-20% SDS-PAGE gradient gels (Novex). In order to examine the level of ligand expression, non-immunoprecipitated conditioned media from the co-transfected cells were also loaded. These samples were diluted two fold with 2× non-reducing sample buffer, boiled for 2 min. and then 25 μl was loaded into each lane. Each gel contained a set of immunoprecipitations and a set of non-immunoprecipitated conditioned media. […] The filters were again washed 3 times and then detected using ECL reagents (Amersham). […]
A general note: In western blotting, separated proteins are transferred to a membrane and probed.

Assay [2] has as its target T1, human soluble myc-BAFF Q136 (human, UniProt Q9Y275 136-285).
T1 construct: also called plasmid #JST556
The assay is described as follows: co-transfection in 293T, anti-FLAG (M2) immunoprecipitation of conditioned media, western blot with anti-myc 9E10. The text has this:
Plasmids encoding the following human soluble TNF family ligands were constructed with the indicated N-terminal epitope tags beginning at the ligand amino acid residue indicated in a PCR3 based mammalian cell expression vector: FLAG-APRIL, beginning with residue A105 (plasmid #LT033) or H115 (plasmid #LT038), FLAG-TWEAK A106 (plasmid #PS288), myc-APRIL A105 (plasmid #JST557), and myc-BAFF Q136 (plasmid #JST556). […] At 48 hrs. post-transfection, conditioned media was collected and used for immunoprecipitation experiments. The immunoprecipitation samples contained 100 μl of conditioned media, 5 μg/ml of the anti-FLAG antibody M2 (Sigma, St Louis, Miss.) and 900 μl of DMEM containing 10% FCS, glutamine, Pen-Strep, G418 and sodium azide and were incubated at 4° C. for 1 hour, with agitation. Then, 30 μl of ProteinA-Sepharose beads (Amersham Pharmacia, Piscataway, N.J.) was added to the samples and the mixture was incubated overnight at 4° C. with agitation. The beads were collected by centrifugation and then washed one time with the DMEM media described above and then 3 times with PBS. The final pellet containing the beads was then suspended in 2× SDS non-reducing sample buffer and boiled for 5 minutes. […] The filter was again washed 3 times and then detected using ECL reagents (Amersham Pharmacia, Piscataway, N.J.). […]

human full length BAFF (construct PS544), found cleaved in the conditioned media, sequence (Q9Y275 134-285): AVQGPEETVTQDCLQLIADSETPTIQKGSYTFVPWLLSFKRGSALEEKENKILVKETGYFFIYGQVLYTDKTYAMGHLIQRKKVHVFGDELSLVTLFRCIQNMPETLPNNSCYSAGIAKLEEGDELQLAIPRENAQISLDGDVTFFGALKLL
T1 sequence (Q9Y275 136-285): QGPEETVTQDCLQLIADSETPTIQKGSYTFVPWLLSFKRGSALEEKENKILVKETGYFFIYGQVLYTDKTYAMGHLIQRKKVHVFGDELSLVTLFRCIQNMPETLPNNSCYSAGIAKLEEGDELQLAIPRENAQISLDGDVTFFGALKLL

B1: soluble FLAG-tagged human TWEAK beginning at A106 (ligand, UniProt O43508 106-249, looked up, not shown: small tags and cut ends)
chain: AIAAHYEVHPRPGQDGAQAGVDGTVSGWEEARINSSSPLRYNRQIGEFIVTRAGLYYLYCQVHFDEGKAVYLKLDLLVDGVLALRCLEEFSATAASSLGPQLRLCQVSGLLALRPGSSLRIRTLPWAHLKAAPFLTYFGLFQVH
notes: also called FLAG-TWEAK A106; plasmid PS288
As for B1, the binding result in assay [1] and in assay [2] was “no binding” in each case.

The values above are taken from patent publication US20030023038A1 (Biogen, published 2003).
